What was measured:
[1] = target: T1, α3 subunit of the Na+/K+-ATPase, endogenous on mouse cells (cortical neurons, cortical slices, cardiac … (mouse, UniProt Q6PIC6 1-1013)); assay: competition against C-Ag20z8 on live cortical neurons, NIH Image analysis of immunofluorescence; competitor C-Ag20z8
T1 construct: whole, on cells; On cells it stands in the pump with its other subunits, which are not specified; also called α3Na+/K+-ATPase; neuronal receptor for agrin

[2] = target: T1, α3 subunit of the Na+/K+-ATPase, …; assay: cell-based or functional assay

reduction of labeling (mean pixel intensity) at a 1:1 molar ratio [1] [%] | EC50 of c-fos induction (Fos in situ enzyme-linked immunoassay, cortical cultures) [2] [pM] | glutamate-induced Fos expression of agrin-deficient neurons grown 2 d in 5 nM fragment [2] [fold] | IC50 of inhibition of c-fos induction by 50 pM C-Ag95z8 (cortical cultures, single-site competition model) [2] [pM] | Binder
~30 |  |  |  | rC-Agy4z8, soluble 95-kD COOH-terminal fragment of rat agrin, y4 z8 (ligand, UniProt P25304-5 1153-1951, looked up, domain: soluble 95-kD COOH-terminal fragment; Harvested in medium conditioned by transiently transfected COS-7 cells; concentration only estimated; also called Rat C-Ag4,8; rC-Ag95y4z8) AATGTTAAMATARATTVSRLPASSVTPRVYPSHTSRPVGRTTAPPTTRRPPTTATNMDRPRTPGHQQPSKSCDSQPCLHGGTCQDQDSGKGFTCSCTAGRGGSVCEKVQPPSMPAFKGHSFLAFPTLRAYHTLRLALEFRALETEGLLLYNGNARGKDFLALALLDGRVQFRFDTGSGPAVLTSLVPVEPGRWHRLELSRHWRQGTLSVDGETPVVGESPSGTDGLNLDTNLYVGGIPEEQVAMVLDRTSVGVGLKGCIRMLDINNQQLELSDWQRAAVQSSGVGECGDHPCLPNPCHGGALCQALEAGMFLCQCPPGRFGPTCADEKSPCQPNPCHGAAPCRVLSSGGAKCECPLGRSGTFCQTVLETAGSRPFLADFNGFSYLELKGLHTFERDLGEKMALEMVFLARGPSGLLLYNGQKTDGKGDFVSLALHNRHLEFCYDLGKGAAVIRSKEPIALGTWVRVFLERNGRKGALQVGDGPRVLGESPKSRKVPHTMLNLKEPLYIGGAPDFSKLARGAAVSSGFSGVIQLVSLRGHQLLTQEHVLRAVDVSPFADHPCTQALGNPCLNGGSCVPREATYECLCPGGFSGLHCEKGLVEKSVGDLETLAFDGRTYIEYLNAVIESPETLDSRALFSEKALQSNHFELSLRTEATQGLVLWIGKAAERADYMALAIVDGHLQLSYDLGSQPVVLRSTVKVNTNRWLRIRAHREHREGSLQVGNEAPVTGSSPLGATQLDTDGALWLGGLQKLPVGQALPKAYGTGFVGCLRDVVVGHRQLHLLEDAVTKPELRPCPTP
 | 11.2 | 2.2 |  | C-Ag20z8, 20-kD COOH-terminal fragment of mouse agrin, z8 splice variant (ligand, not shown: small tags and cut ends) MDPRTYIEYLNAVTESELTNEIPAEKALQSNHFELTLRTEATQGWLVLWIGKAAERADYMALAIVDGHLQLSYDLASQPVVLRSTVKVNTNRWLRVRAHREHREGSLQVGNEAPVTSSSPLGATQLDTDGALWLGGLQKLPVGQPLPKAYGTGFVGCLRNVVGHRQLHLLEDAVTKPELRPCPTLNSKLGPEQKLISEEDLNSAVDHHHHHH
 |  |  | 64.5 | C-Ag15, 15-kD COOH-terminal fragment of mouse agrin (37 amino acids deleted from the NH2 terminus of C-Ag20) (ligand, not shown: small tags and cut ends) MDPWIGKAAERADYMALAIVDGHLQLSYDLASQPVVLRSTVKVNTNRWLRVRAHREHREGSLQVGNEAPVTSSSPLGATQLDTDGALWLGGLQKLPVGQPLPKAYGTGFVGCLRNVVGHRQLHLLEDAVTKPELRPCPTLNSKLGPEQKLISEEDLNSAVDHHHHHH
 | 13.3 | 2.2 |  | C-Ag20z0, 20-kD COOH-terminal fragment of mouse agrin, z0 splice variant (ligand, not shown: small tags and cut ends) MDPRTYIEYLNAVTESEKALQSNHFELTLRTEATQGWLVLWIGKAAERADYMALAIVDGHLQLSYDLASQPVVLRSTVKVNTNRWLRVRAHREHREGSLQVGNEAPVTSSSPLGATQLDTDGALWLGGLQKLPVGQPLPKAYGTGFVGCLRNVVGHRQLHLLEDAVTKPELRPCPTLNSKLGPEQKLISEEDLNSAVDHHHHHH
